Results from the supplement of paper PMC7877785.
± gives the uncertainty stated by the source.

Assay: self-splicing fitness, log relative to wild type (ln ratio); higher = more splicing; Tetrahymena group I intron in knt gene, E. coli kanamycin selection, DiMSum; sequences stand for … in CUCUCU…GGAGGGAAAAGUUAUCAGGCAUGCACCUGGUAGCUAGUCUUUAAACCAAUAGAUUGCAUCGGUUUAAAAGGCAAGACCGUCAAAUUGCGGGAAAGGGGUCAACAGCCGUUCAGUACCAAGUCUCAGGGGAAACUUUGAGAUGGCCUUGCAAAGGGUAUGGUAAUAAGCUGACGGACAUGGUCCUAACCACGCAGCCAAGUCCUAAGUCAACAGAUCUUCUGUUGAUAUGGAUGCAGUUCACAGACUAAAUGUCGGUCGGGGAAGAUGUAUUCUUCUCAUAAGAUAUAGUCGGACCUCUCCUUAAUGGGAGCUAGCGGAUGAAGUGAUGCAACACUGGAGCCGCUGGGAACUAAUUUGUAUGCGAAAGUAUAUUGAUUAGUUUUGGAGUACUCGUGGUCG
Procedure, shortened: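 DiMSum derived fitness as the error-weighted combination of fold changes across replicates, kanamycin versus no kanamycin, normalised to wild type. E. coli BL21(DE3) held the library, which randomised all eight P1ex-region intron nucleotides within the knt kanamycin-resistance gene on pET-22b(+). Six replicate transformations grew overnight at 37°C or 30°C on LB agar with or without 25 μg/mL kanamycin, also containing 100 μg/mL carbenicillin, 50 μM IPTG and 0.2% rhamnose, and pooled colonies were amplicon-sequenced on an Illumina HiSeq 2500.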

Sequence: AUUUAGCAAUAUUACGGCCU
- self-splicing fitness (ln) (30 °C): 0.607 ± 0.15
- self-splicing fitness (ln) (37 °C): -0.166 ± 0.16

Sequence: AGAAAGCAAUAUUACGCUGC
- self-splicing fitness (ln) (30 °C): -2.38 ± 0.2
- self-splicing fitness (ln) (37 °C): -1.52 ± 0.23

Sequence: GGCAAGCAAUAUUACGGCGU
- self-splicing fitness (ln) (30 °C): -0.154 ± 0.088
- self-splicing fitness (ln) (37 °C): 0.316 ± 0.12

Sequence: AUCCAGCAAUAUUACGCGUU
- self-splicing fitness (ln) (30 °C): -1.06 ± 0.087
- self-splicing fitness (ln) (37 °C): -0.503 ± 0.1

Sequence: AGGUAGCAAUAUUACGAUUA
- self-splicing fitness (ln) (30 °C): -0.677 ± 0.016
- self-splicing fitness (ln) (37 °C): -0.383 ± 0.033

Sequence: GCCCAGCAAUAUUACGGUUU
- self-splicing fitness (ln) (30 °C): 0.123 ± 0.05
- self-splicing fitness (ln) (37 °C): 0.185 ± 0.063

Sequence: UUGCAGCAAUAUUACGAUUC
- self-splicing fitness (ln) (30 °C): -3.53 ± 0.38
- self-splicing fitness (ln) (37 °C): -1.71 ± 0.19

Sequence: GCUGAGCAAUAUUACGGCAA
- self-splicing fitness (ln) (30 °C): -1.52 ± 0.21
- self-splicing fitness (ln) (37 °C): -2.9 ± 0.31

Sequence: AACCAGCAAUAUUACGCCUC
- self-splicing fitness (ln) (30 °C): -0.868 ± 0.13
- self-splicing fitness (ln) (37 °C): -0.399 ± 0.16

Sequence: GAUGAGCAAUAUUACGACCC
- self-splicing fitness (ln) (30 °C): -0.245 ± 0.34
- self-splicing fitness (ln) (37 °C): -0.0127 ± 0.3

Sequence: CCGGAGCAAUAUUACGAGUU
- self-splicing fitness (ln) (30 °C): -3.65 ± 0.2
- self-splicing fitness (ln) (37 °C): -2.76 ± 0.29

Sequence: UCAGAGCAAUAUUACGAGCG
- self-splicing fitness (ln) (30 °C): -4.27 ± 0.36
- self-splicing fitness (ln) (37 °C): -1.23 ± 0.14

Sequence: UAGCAGCAAUAUUACGUAGA
- self-splicing fitness (ln) (30 °C): -2.62 ± 0.072
- self-splicing fitness (ln) (37 °C): -1.11 ± 0.079

Sequence: CGGCAGCAAUAUUACGAGUG
- self-splicing fitness (ln) (30 °C): -1.03 ± 0.086
- self-splicing fitness (ln) (37 °C): 0.319 ± 0.1

Sequence: ACCAAGCAAUAUUACGCAUC
- self-splicing fitness (ln) (30 °C): -3.18 ± 0.11
- self-splicing fitness (ln) (37 °C): -1.74 ± 0.11

Sequence: UGGCAGCAAUAUUACGCUCG
- self-splicing fitness (ln) (30 °C): -0.792 ± 0.083
- self-splicing fitness (ln) (37 °C): -0.0749 ± 0.11

Sequence: CAAUAGCAAUAUUACGCGCA
- self-splicing fitness (ln) (30 °C): -2.68 ± 0.19
- self-splicing fitness (ln) (37 °C): -1.7 ± 0.18

Sequence: CUGAAGCAAUAUUACGCCUC
- self-splicing fitness (ln) (30 °C): -3.61 ± 0.44

Sequence: CCUAAGCAAUAUUACGCUGC
- self-splicing fitness (ln) (37 °C): -3.02 ± 0.34

Sequence: CAAGAGCAAUAUUACGCGCA
- self-splicing fitness (ln) (30 °C): -3.48 ± 0.37
- self-splicing fitness (ln) (37 °C): -2.09 ± 0.25

Sequence: AAAGAGCAAUAUUACGAAUG
- self-splicing fitness (ln) (30 °C): -2.69 ± 0.2

Sequence: GCCUAGCAAUAUUACGAUAA
- self-splicing fitness (ln) (30 °C): -2.08 ± 0.12
- self-splicing fitness (ln) (37 °C): -1.75 ± 0.14

Sequence: AACUAGCAAUAUUACGAUAA
- self-splicing fitness (ln) (30 °C): -1.41 ± 0.099
- self-splicing fitness (ln) (37 °C): -0.94 ± 0.099

Sequence: CGAUAGCAAUAUUACGAAGA
- self-splicing fitness (ln) (37 °C): -2.21 ± 0.4

Sequence: AGCGAGCAAUAUUACGUGGG
- self-splicing fitness (ln) (30 °C): -2.35 ± 0.27
- self-splicing fitness (ln) (37 °C): -3.19 ± 0.35

Sequence: UGUAAGCAAUAUUACGUGUA
- self-splicing fitness (ln) (30 °C): -1.52 ± 0.077
- self-splicing fitness (ln) (37 °C): -0.97 ± 0.093

Sequence: AUGAAGCAAUAUUACGAAUU
- self-splicing fitness (ln) (30 °C): -1.58 ± 0.084
- self-splicing fitness (ln) (37 °C): -1.25 ± 0.12

Sequence: CGGUAGCAAUAUUACGAUUG
- self-splicing fitness (ln) (30 °C): -0.538 ± 0.073
- self-splicing fitness (ln) (37 °C): -0.0537 ± 0.095

Sequence: UGAGAGCAAUAUUACGGGUA
- self-splicing fitness (ln) (30 °C): -2.66 ± 0.37

Sequence: AUUCAGCAAUAUUACGCUAA
- self-splicing fitness (ln) (30 °C): -0.96 ± 0.094
- self-splicing fitness (ln) (37 °C): -0.0329 ± 0.1

Sequence: UUUCAGCAAUAUUACGUGCC
- self-splicing fitness (ln) (30 °C): -3.44 ± 0.25
- self-splicing fitness (ln) (37 °C): -1.57 ± 0.23

Sequence: UACCAGCAAUAUUACGGUAA
- self-splicing fitness (ln) (30 °C): -1.77 ± 0.076
- self-splicing fitness (ln) (37 °C): -0.857 ± 0.074

Sequence: GGUAAGCAAUAUUACGGGCG
- self-splicing fitness (ln) (30 °C): -0.129 ± 0.097
- self-splicing fitness (ln) (37 °C): -0.279 ± 0.13

Sequence: CGCGAGCAAUAUUACGACAU
- self-splicing fitness (ln) (30 °C): -3.853 ± 0.03
- self-splicing fitness (ln) (37 °C): -2.77 ± 0.043

Sequence: GGCUAGCAAUAUUACGUUCA
- self-splicing fitness (ln) (30 °C): -0.464 ± 0.094
- self-splicing fitness (ln) (37 °C): 0.156 ± 0.11

Sequence: UUCUAGCAAUAUUACGUAUC
- self-splicing fitness (ln) (30 °C): -3.32 ± 0.27
- self-splicing fitness (ln) (37 °C): -2.05 ± 0.22

Sequence: GCAAAGCAAUAUUACGGCAA
- self-splicing fitness (ln) (30 °C): -0.673 ± 0.094
- self-splicing fitness (ln) (37 °C): -0.722 ± 0.091

Sequence: UGCCAGCAAUAUUACGACAC
- self-splicing fitness (ln) (30 °C): -2.55 ± 0.35
- self-splicing fitness (ln) (37 °C): -2.68 ± 0.38

Sequence: GUUCAGCAAUAUUACGAUUU
- self-splicing fitness (ln) (30 °C): -0.241 ± 0.078
- self-splicing fitness (ln) (37 °C): 0.331 ± 0.087

Sequence: CGCCAGCAAUAUUACGAGUG
- self-splicing fitness (ln) (30 °C): -2.41 ± 0.07
- self-splicing fitness (ln) (37 °C): -1.59 ± 0.11

Sequence: ACAGAGCAAUAUUACGCGCU
- self-splicing fitness (ln) (37 °C): -1.91 ± 0.2

Sequence: UAUUAGCAAUAUUACGCACA
- self-splicing fitness (ln) (30 °C): -0.485 ± 0.13
- self-splicing fitness (ln) (37 °C): -0.0783 ± 0.23

Sequence: AUACAGCAAUAUUACGGCGU
- self-splicing fitness (ln) (30 °C): -0.145 ± 0.065
- self-splicing fitness (ln) (37 °C): 0.665 ± 0.076

Sequence: AGCUAGCAAUAUUACGUCCG
- self-splicing fitness (ln) (30 °C): -1.65 ± 0.23
- self-splicing fitness (ln) (37 °C): -0.915 ± 0.21

Sequence: ACCCAGCAAUAUUACGCGCA
- self-splicing fitness (ln) (30 °C): -0.821 ± 0.061
- self-splicing fitness (ln) (37 °C): -0.299 ± 0.075

Sequence: CAGUAGCAAUAUUACGGCUG
- self-splicing fitness (ln) (30 °C): -3.85 ± 0.47
- self-splicing fitness (ln) (37 °C): -2.37 ± 0.34

Sequence: UCCCAGCAAUAUUACGCCAA
- self-splicing fitness (ln) (30 °C): -2.7 ± 0.33
- self-splicing fitness (ln) (37 °C): -1.63 ± 0.3

Sequence: AUAAAGCAAUAUUACGCCUA
- self-splicing fitness (ln) (30 °C): -0.422 ± 0.091
- self-splicing fitness (ln) (37 °C): -0.286 ± 0.1

Sequence: CAUUAGCAAUAUUACGCAGU
- self-splicing fitness (ln) (30 °C): -3.73 ± 0.18
- self-splicing fitness (ln) (37 °C): -2.77 ± 0.22

Sequence: AGCGAGCAAUAUUACGCAGA
- self-splicing fitness (ln) (30 °C): -2.67 ± 0.24
- self-splicing fitness (ln) (37 °C): -2.88 ± 0.24
